Reference: US20130288389A1

Molecular target: human rPrP^C 23-231 (human) (UniProt P04156)
Assay: cell-based or functional assay

human sporadic CJD (sCJD) brain homogenate PrP-res (from UniProt P04156 23-230)
eQuIC seeded conversion of substrate: lowest PrP-res amount detected: 1 fg
